Earlier results, collected in article PMC2888693.

Molecular target: Tube DD (Drosophila melanogaster) (UniProt P22812)
Sequence of UniProt P22812 (P22812 27-152): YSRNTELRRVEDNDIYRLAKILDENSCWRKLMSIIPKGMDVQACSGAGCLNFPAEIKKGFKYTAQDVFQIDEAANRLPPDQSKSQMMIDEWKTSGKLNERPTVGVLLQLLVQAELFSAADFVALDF

Pelle DD (from UniProt Q05652)
Kd: 500 nM
